Experimental data as given in patent US20110239327A1, “Nematicidal Effects of Cysteine Proteinases and Methods of Use Thereof to Treat Nematode Infestation” (priority 2007, published 2011).

Tests used:
[1] = tested on: Steinernema feltiae; assay: In vitro effect on the beneficial nematode Steinernema feltiae; format: cell-based
Protocol: (§1) Eggs of M. incognita race 1 from North Carolina State University, USA were collected from tomato-infected roots grown in a glasshouse at 23° C. in a 16:8 h light-dark regime. Eggs were extracted using 1% hypochlorite (NaClO) solution (Hussey and Barker, 1973) or by picking egg masses from tomato-infected roots. Juveniles (J2) were hatched from the eggs and egg masses in water. Heterodera glycines eggs were obtained from soil samples stored in Rothamsted-Research. Second stage juveniles (J2) were hatched from the eggs in water after 10 days. Pratylenchus penetrans were a gift from Dr. Deeren Anne-Marie from the Institute for Agricultural and Fisheries Research, Merelbeke, Belgium. The beneficial nematodes Steinernema feltiae and Heterorhabditis megidis were a gift from Dr. Paul Williams from Becker Underwood.
(§2) Control wells were set up which contained J2s and distilled water with 16 mM L-cysteine. Each enzyme concentration and the controls were set up in duplicate (i.e. n=2). The actual number of active J2s per well was counted with the aid of an Olympus inverted microscope, prior to the addition of the enzymes, and then the J2s were incubated in the dark at room temperature for 2 hs, 16 hs, 24 hs or 40 hr. The number of live and dead J2s per well was counted after each enzyme incubation. The same procedure was followed when setting up further experiments to compare the effects of these enzymes with Heterodera glycines J2, Pratylenchus penetrans, Steinernema feltiae and Heterorhabditis megidis.
(§3) The beneficial nematodes Hetorhabditis megidis and Steinernema feltiae were incubated with dilutions of actinidin, bromelain and pappain from papaya latex (see concentrations used in table 3). These nematodes reacted differentially to these cysteine proteinases (Tables 4 and 5). […] S. feltiae were dead at all concentrations of actinidin tested. […] After 16 hs of observation the enzyme solutions were diluted with water (to half of the initial concentrations) however, no change in nematode movement was observed after 24 hs.

[2] = tested on: Heterorhabditis megidis; assay: In vitro effect on the beneficial nematode Heterorhabditis megidis; format: cell-based
Protocol: as §1, §2, §3

[3] = tested on: M. incognita J2; assay: In planta bioassay, one soil application: nematode infection of tomato roots; format: in vivo, M. incognita on tomato plants; details: with or without Vydate 125 μl; for Mean number of nematodes in roots: soil 16% organic matter, 11 days; for Reduction of nematode infection of tomato plants: vs controls
Protocol: Oxamyl is supplied as 10% liquid Vydate. 125 μl of a solution 1000 fold dilution of 10% formulation (kindly supplied by DK from NIU) was applied to 5 g of the soil mixture with 16% organic matter, to give a partial nematicidal effect. Soil mixtures were wetted with PBS pH 7.2, 16 hrs prior nematode application of 1000 or 2000 M. incognita J2. Infected soil mixtures were treated with water (control) or 250 μM of active papain in 16 mM of L-cysteine or a combination of Vydate and 250 μM of active papain in 16 mM of L-cysteine. After 48 hs tomato seedlings one month old were added to the treated soils. After 11 days the roots were washed free of soil and chopped to approximately 2 mm pieces. The root pieces of each tomato plant was placed in muslin bags and stained with acid-fuchsin. The stained roots were examined under microscope and all the nematodes present in the roots were counted. In some experiments the soil mixture was wetted with PBS pH 7.2 or 250 μM of active papain for 16 hs to block the non-specific binding site present in the soil particles. After that approximately 1000 M. incognita J2 were applied to soil mixtures, followed by application of 250 μM of active papain in presence of 16 mM of L-cysteine, or water (control) or Vydate alone or a combination of 250 μM of active papain in presence of 16 mM of L-cysteine and Vydate. After 48 hours tomato seedlings one month old were added to the treated soils and after 11 days post infection nematode development inside root tissues was assessed as described above.
Approximately 2000 J2 of M. incognita were added to 5 g of 1:6 loam and sand which was previously wetted for 16 hs with PBS pH 7. Then a solution of 300 μM or 150 μM of active papain (in 16 mM of L-cysteine) with and without 125 μl Vydate was added to soil and left to react for 48 hs. After this period of time tomato seedlings one month old were added to the treated soil mixtures and placed in a glasshouse at 23° C. in a 16:8 h light-dark regime (Table 1). After 11 days nematode development in the root tissue was assessed.

B1: papain (protein, UniProt P00784 134-345, looked up)
Papain: IPEYVDWRQKGAVTPVKNQGSCGSCWAFSAVVTIEGIIKIRTGNLNEYSEQELLDCDRRSYGCNGGYPWSALQLVAQYGIHYRNTYPYEGVQRYCRSREKGPYAAKTDGVRQVQPYNEGALLYSIANQPVSVVLEAAGKDFQLYRGGIFVGPCGNKVDHAVAAVGYGPNYILIKNSWGTGWGENGYIRIKRGTGNSYGVCGLYTSSFYPVKN
notes: cysteine proteinase from Carica papaya, Merops C01.001, Sigma P3125
[1]
  only papain concentration that affected S. feltiae movement: 250 µM
[1]; enzyme concentration A (Table 3): actinidin 3.3 mM, bromelain 2.2 mM, papain 250 uM
  nematode motility or behaviour: 70% paralysed
[1]; enzyme concentration B: actinidin 1.7 mM, bromelain 1.1 mM, papain 125 uM
  nematode motility or behaviour: All moving slowly
[2]; papain 15 μM
  effect on H. megidis: not affected anymore
[2]; papain 62.4 μM
  movement of H. megidis: moving slowly
[3]; papain 150 μM
  Mean number of nematodes in roots: 272
  Reduction of nematode infection of tomato plants: 14%
[3]; papain 300 μM
  Mean number of nematodes in roots: 132
  Reduction of nematode infection of tomato plants: 60%
